Measured values: the supplement of paper PMC10899765

Experiments:
Details in all cases: 20 nM; 72 h
[1] = test system: MCF10A; assay: 5+ nucleoli phenotype percent effect (relative to siNT 0% and siKIF11 100%); higher = more cells with five or more nucleoli
Description: (§1)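 After 72 h, cells were fixed and stained with Hoechst and anti-fibrillarin, and nucleoli per nucleus were counted with CellProfiler. Values are plate-adjusted percent effect for the one-nucleolus and 5+ nucleoli phenotypes, normalised to siNT (0%) and to the positive controls siNOL11 or siKIF11 (100%), as the mean of biological triplicates. Percent viability is the nuclei count relative to siNT.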

[2] = test system: MCF10A; assay: one-nucleolus phenotype percent effect (relative to siNT 0% and siNOL11 100%); higher = more cells with one nucleolus (ribosome biogenesis inhibition)
Description: as §1

[3] = test system: MCF10A; assay: percent viability (nuclei count relative to siNT); higher = more viable cells
Description: as §1

Sequence	5+ nucleoli phenotype percent effect [1] [%]	one-nucleolus phenotype percent effect [2] [%]	percent viability [3] [%]
CAACAAAUCCCAGUCUACCUAA [hsa-miR-7-2-3p]	4.35	-10.8	104
CAACACCAGUCGAUGGGCUGU [hsa-miR-21-3p]	-31.2	35.5	52.9
CAACCACCACUGUCUCUCCCCAG [hsa-miR-6776-3p]	48.4	-24.4	91.3
CAACCCUAGGAGAGGGUGCCAUUCA [hsa-miR-652-5p]	-17.7	12.5	46.2
CAACCUCGACGAUCUCCUCAGC [hsa-miR-3150a-5p]	22.1	-25.7	171
CAACCUCGAGGAUCUCCCCAGC [hsa-miR-3150b-5p]	20.8	-5.6	48.1
CAACCUGGAGGACUCCAUGCUG [hsa-miR-490-3p]	55.8	-12.6	41.3
CAACGGAAUCCCAAAAGCAGCUG [hsa-miR-191-5p]	2.25	11.8	29.2
CAACUAGACUGUGAGCUUCUAG [hsa-miR-708-3p]	46.1	-31	199
CAAGAACCUCAGUUGCUUUUGU [hsa-miR-548b-3p]	39	-16.6	83.5
CAAGCCUCUCCUGCCCUUCCAG [hsa-miR-7109-3p]	31.1	-12.1	51.1
CAAGCUCGCUUCUAUGGGUCUG [hsa-miR-99a-3p]	-16.1	23.3	70
CAAGCUCGUGUCUGUGGGUCCG [hsa-miR-99b-3p]	-2.82	8.24	84.3
CAAGCUUGUAUCUAUAGGUAUG [hsa-miR-100-3p]	19.2	-5.48	77.2
CAAGGAGACGGGAACAUGGAGC [hsa-miR-4428]	32.8	-16.1	69.6
CAAGGCCAAAGGAAGAGAACAG [hsa-miR-4753-5p]	-19.1	2.71	31.8
CAAGGGACCAAGCAUUCAUUAU [hsa-miR-4475]	-16.1	7.86	37.7
CAAGUCACUAGUGGUUCCGUU [hsa-miR-224-5p]	-41	15.4	38.7
CAAGUCUUAUUUGAGCACCUGUU [hsa-miR-1264]	21.1	-11.7	70
CAAUCACUAACUCCACUGCCAU [hsa-miR-34b-3p]	11	-6.72	50.1

Sequence	5+ nucleoli phenotype percent effect [1] [%]	one-nucleolus phenotype percent effect [2] [%]	percent viability [3] [%]
CAAUGUGAUCUUUUGGAUGUA [hsa-miR-8066]	-37.9	56.9	30.2
CAAUGUUUCCACAGUGCAUCAC [hsa-miR-33a-3p]	2.57	-10.4	51.1
CAAUUCUCAAAGGAGCCUCCC [hsa-miR-5571-5p]	-26.3	34	32.7
CAAUUUAGUGUGUGUGAUAUUU [hsa-miR-32-3p]	35.1	-22.3	80.6
CACAAGGUAUUGGUAUUACCU [hsa-miR-624-3p]	-46.2	71	21.1
CACACAAGUGGCCCCCAACACU [hsa-miR-4731-3p]	-12.1	8.2	29.9
CACACACACACACACACGUAU [hsa-miR-8485]	-36.9	57.6	15.8
CACACACUGCAAUUACUUUUGC [hsa-miR-603]	19.5	-5.16	60.9
CACACAGGAAAAGCGGGGCCCUG [hsa-miR-6768-5p]	24.4	-20.7	55.7
CACACAUAGCAGGUGUAUAUA [hsa-miR-4789-3p]	39.4	-24.6	67.3
CACAGCAAGUGUAGACAGGCA [hsa-miR-3120-3p]	22.9	-20.3	51.8
CACAGGACUGACUCCUCACCCCAGUG [hsa-miR-4700-3p]	43.2	-16	83.5
CACAGGCUUAGAAAAGACAGU [hsa-miR-4438]	25.6	-2.67	11.8
CACAUAUGAAGUGAGCCAGCAC [hsa-miR-5580-3p]	-31.6	-6.62	56.3
CACAUGGCCGAAACAGAGAAGU [hsa-miR-942-3p]	-8.03	-19.9	32.7
CACAUUACACGGUCGACCUCU [hsa-miR-323a-3p]	-33.7	12.4	49.9
CACCAGGCAUUGUGGUCUCC [hsa-miR-1911-3p]	-9.8	26.3	45
CACCAUGGACGGUUUACC [hsa-miR-7153-3p]	-48.4	62.9	23.4
CACCCAGAUCUGCGGCCUAAU [hsa-miR-1295b-5p]	-30.7	34.4	29.9
CACCCCCUGUUUCCUGGCCCAC [hsa-miR-4640-3p]	31.4	-11.3	127

Sequence	5+ nucleoli phenotype percent effect [1] [%]	one-nucleolus phenotype percent effect [2] [%]	percent viability [3] [%]
CACCCGGCUGUGUGCACAUGUGC [hsa-miR-941]	-23.6	-3.88	56.3
CACCCGUAGAACCGACCUUGCG [hsa-miR-99b-5p]	-9.05	21.8	62.9
CACCGACUCUGUCUCCUGCAG [hsa-miR-6510-3p]	-12.7	11.7	69.9
CACCGGGGAUGGCAGAGGGUCG [hsa-miR-4655-5p]	15	24.6	16.1
CACCUCUCCUGGCAUCGCCCC [hsa-miR-6800-3p]	21.6	-20.1	128
CACCUUGCGCUACUCAGGUCUG [hsa-miR-3200-3p]	-0.139	-8.76	24.5
CACCUUUGUGUCCCCAUCCUGCA [hsa-miR-6782-3p]	49.2	-13.1	51.1
CACGCUCAUGCACACACCCACA [hsa-miR-574-3p]	-3.95	-8.15	82.7
CACGGCAAAAGAAACAAUCCA [hsa-miR-4445-3p]	25.7	-16.4	52.2
CACUAGAUUGUGAGCUCCUGGA [hsa-miR-28-3p]	12.4	-9.21	92.2
CACUCAGCCUUGAGGGCACUUUC [hsa-miR-512-5p]	-15.2	16.2	43.4
CACUGCAGGACUCAGCAG [hsa-miR-4418]	-22.7	-4.26	55.1
CACUGCAUUCCUGCUUGGCCCAG [hsa-miR-6807-3p]	6.87	-9.99	48.2
CACUGGCUCCUUUCUGGGUAGA [hsa-miR-892b]	-22.8	27.6	25.4
CACUGUAGGUGAUGGUGAGAGUGGGCA [hsa-miR-1183]	17.5	0.199	66.4
CACUGUGGGUACAUGCU [hsa-miR-4318]	-33	65.2	35.1
CACUGUGUCCUUUCUGCGUAG [hsa-miR-892a]	-27.3	31.9	57.7
CACUGUUUCACCACUGGCUCUU [hsa-miR-4676-3p]	18.4	-8.83	49.2
CACUGUUUCCUUUCUGAGUGGA [hsa-miR-892c-3p]	-29.1	1.69	93.2
